# Experimental data: the nanobody polyreactivity screen of Harvey et al. (2022)
# Assay: yeast display, Sf9 membrane polyspecificity reagent, FACS + sequencing; frameworks hold sequencing errors
# How it was run: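 Polyreactivity labels are assigned by the sorting gate from which each nanobody was recovered. The gates were low and high (top ~1%), set on anti-HA fluorescence for expression and streptavidin fluorescence for reagent binding. Before sorting, galactose-induced (36–48 hours) yeast display cells were stained for 1 hour at 4 °C with 10% biotinylated, detergent-solubilized Sf9 membrane reagent.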
row,Sequence,polyreactivity (PSR sort gate)
1,QVQLVESGGGLVQAGGSLRLSCAASGYIFSYYTMGWYRQAPGKERELVAAISYSGGSTDYADSVKGRFTISRDNAKNTVYLQMNSLKPEDTAVYYCNADYSFWAKPYWEYGYDYWGQGTQVTVSS,low polyreactivity
2,QVQLVESGGGLVQAGGSLRLSCAASGYIFVIYAMGWYRQAPGKERELVAAISWGGGSTYYADSVKGRFTISRDNAKNTVYLQMNSLKPEATAVYYCAARGWVVGRISVPGEYWGQGTQVTVSS,high polyreactivity
3,QVQLVESGGGLVQAGGSLRLSCAASGYIFVPYALGWYRQAPGKERELVASITGGGSTNYADSVKGRFTISRDNAKNTVYLQMNSLKPEDTAVYYCAAVLGGGEKGGRNRRFDSWGQGTQVTVSS,low polyreactivity
4,QVQLVESGGGLVQAGGSLRLSCAASGYIFVSYDMGWYRQAPGKERELVAAISWRGGSTYYADSVKGRFTISRDNAMNTVYLQMNSLKPEDTAVYYCAVDDWLDWLFADFGYWGQGTQVTVSS,low polyreactivity
5,QVQLVESGGGLVQAGGSLRLSCAASGYIFVYNSMGWYRPAPGKERELVAVINYSGSSTYYADSVKGRFPISRDNAKNTVYLQMNSLKPEDTAVYYCNALRRESLEDEYWGQGTQVTVSS,high polyreactivity
6,QVQLVESGGGLVQAGGSLRLSCAASGYIFWENAMGWYRQAPGKERELVAAITVSGGGTYYADSVKGRFTISRDNAKNTVYLQMNSLKPEDTAVYYCAADEDNPWLWFYYWGQGTQVTVSS,low polyreactivity
7,QVQLVESGGGLVQAGGSLRLSCAASGYIFWSNTMGWYRQAPGKERELVAAISQSTASTYYADSVKGRFTISRDNAKNTVYLQMNSLKPEDTAVYYCAADDYIDGDDYWGQGTQVTVSS,low polyreactivity
8,QVQLVESGGGLVQAGGSLRLSCAASGYIFYAYAMAWYRHAPGKESELVAAITDNGVSTFYADSVKGRFTISRDNAKNTVYLHMNSLIPEDTAVYYCATSSTHSRGDEYWGQGTQVAVSS,low polyreactivity
9,QVQLVESGGGLVQAGGSLRLSCAASGYIFYDNAMGWYRQAPGKERELVAAISRSGSRTRYADSVKGRFTISRDNAKNTVYLQMNSLKPEDTAVYYCNTRYAKYYYWGQGTQVTVSS,high polyreactivity
10,QVQLVESGGGLVQAGGSLRLSCAASGYIFYFNAMGRYRQAPGKERELVAVISDRDDSTYYADSVKGRFTISRDNAKNTVYLQMNSLKPEDTAVYYCAADGDTYVDDPYDYWGQGTQVTVSS,low polyreactivity
11,QVQLVESGGGLVQAGGSLRLSCAASGYIFYFYAMGWYRQAPGKERELVAAISSSGGSTRYADSVKGRFTISRDNAKNTVYLQMNSLKPEDTAVYYCAASHWSGAAWYYYWGQGTQVTVSS,high polyreactivity
12,QVQLVESGGGLVQAGGSLRLSCAASGYIFYGYAMGWYRQAPWKESEWVAAITVRGGSTYYADSVKGRFTISRDKAKNTVYLQKNSQKPEDTAVYYCAAAPQFTFGVGYWGQVTQVTVSS,low polyreactivity
13,QVQLVESGGGLVQAGGSLRLSCAASGYIFYRNAMGWYRQAPGKEREFVAAISSSGVSTYYADSVKGRFTISRDTAKNTVYLQMNSLKPEDTAVYYCNTGYIFSSFYSSKYGYWGQGTQVTVSS,low polyreactivity
14,QVQLVESGGGLVQAGGSLRLSCAASGYIFYTYAMGWYRQAPGKERELVASIDSGGSTNYADSVKGRFTISRDNAKNTVYLQMNSLKPEDTAVYYCAADVIVRVYYYYYVLMDYWGQGTQVTVSS,low polyreactivity
15,QVQLVESGGGLVQAGGSLRLSCAASGYIIARNAMGWYRQAPGKERELVAAIRSSGGSTYYADSVKGRFTISRDNAKNTVYLQMNSLKPEDTAVYYCAARILKRPKLYDYWGQGTQVTVSS,high polyreactivity
16,QVQLVESGGGLVQAGGSLRLSCAASGYIIRRYSMVWYIQAPGKESEWVAVISSRGGSTYYADSVKGRFTISRDYAKNTVYLQMNSLKPEDTPVYYCAARSGSRATVLSDYWGQGTQVTVSS,high polyreactivity
17,QVQLVESGGGLVQAGGSLRLSCAASGYILDVYAMGWYRQAHGKEWELVAVITWRTDSTYYADSVKGRFTISRDNAKNTVYLQMNSLKPEDTAVYYCAKVLRLSKYRYYYWGQGTQVTVSS,high polyreactivity
18,QVQLVESGGGLVQAGGSLRLSCAASGYILGRYAMGWYRQAPGKERELVAAITSGGSTYYADSVKGRFTISRDNAKNTVYLQMNSLKPEDTAVYYCNAFFATGVDYWGQGTQVTVSS,high polyreactivity
19,QVQLVESGGGLVQAGGSLRLSCAASGYILQINAMGWYRQAPGKERELVSAISISGGNTYYADSVKGRFTISRDNAKNNVYLQMNSLKPEDTAVYYCAAYRYYSYLVRYGLLLAYYYWGQGTQVTVSS,low polyreactivity
20,QVQLVESGGGLVQAGGSLRLSCAASGYILTHYAMGWYRQAPGKERELVAAITRVGNTNYADSVKGRFTISRDNAKNTVYLQMNSLKPEDTAVYYCAVTYNGDSSWPGDYWGQGTQVTVSS,low polyreactivity
21,QVQLVESGGGLVQAGGSLRLSCAASGYISFGYAMGWYRQAPGKEREFVAAISVGGGTTYYADSVKGRFTISRDNAKNTVYLQMNSLKPEDTAVYYCAARSYSYAPRRGYWGQGTQVTVSS,high polyreactivity
22,QVQLVESGGGLVQAGGSLRLSCAASGYMFGGYAMGWYRQAPGKAREFVAAISDISGSTYYADSVKGRFTISRDNAKNTVYLQMNSLKPEDTAVYYGGHTSTADEDYWGQGTQVTVSS,low polyreactivity

row,Sequence,polyreactivity (PSR sort gate)
1,QVQLVESGGGLVQAGGSLRLSCAASGYMGWYRQAPGKERELVATISGSGGSPYYADSVKGRFSISRDNAKNTVYLQMNSLKPEDTARYYCTTEIWGVNRSGYDYWGQGTQVTVSS,low polyreactivity
2,QVQLVESGGGLVQAGGSLRLSCAASGYNFDGYAMGWYRQAPGKERELVAAINSGGGTYYADSVKGRFTISRDNAKNTVYLQMNSLKPEDTAVYYCSKYTYDYWGQGTQVTVSS,low polyreactivity
3,QVQLVESGGGLVQAGGSLRLSCAASGYNFGVYAMGWYRQAPGKERELVAAINGGDSTYYADSVKGRFTISRDNAKNTVYLQMNSLKPEDTAVYYCAADPYSVYGGDYWGQGTQVTVSS,low polyreactivity
4,QVQLVESGGGLVQAGGSLRLSCAASGYNFYVNGMGWYRQAAGTERELVARITLSGTSTYYADSVKGRITISRDYAKNTVYLQMNSLKPDDTAVYYCAAPYFTYGLDVDVYWGQGTQVTVSS,low polyreactivity
5,QVQLVESGGGLVQAGGSLRLSCAASGYRFERNAMGWYIQAPGKERELVAAITDDGDDTYYADSVKGRFTISRDNAKNTVYLQINSLKPEDYAVYYWAKDLYYGDYYYWGQGTQVTVSS,low polyreactivity
6,QVQLVESGGGLVQAGGSLRLSCAASGYTFARNAMGWYIQAPGKERELVAAISSSGGRTYYADSVKGRFTISRDNAKNTVYLQMNSLKPEDTAVYYCNTGYYRTGSYDYWGQGTQVTVSS,high polyreactivity
7,QVQLVESGGGLVQAGGSLRLSCAASGYTFAYYTMGWYRQAPGKERELVAAINRSGGSTNYADSVKGRFTISRDNAKNTVYLQMNSLKPEDTAVYYCAADYFFRRGPGAVFIGRYGYWGQGTQVTVSS,high polyreactivity
8,QVQLVESGGGLVQAGGSLRLSCAASGYTFDGYPRGWYRQAPGKERELVAVITKSGGRTYYADSVKGRFTNSRDNAKNTVYLQMNSLKPEDTAVYYCAADDSGTKDIVEGEYWGQGTQVTVSS,high polyreactivity
9,QVQLVESGGGLVQAGGSLRLSCAASGYTFEDNAMGWYRQAPGKERELVAAIDWSGDSTYYADSVKGRFTISRDNAKNTVYLQMNSLKPEDTAVYYCSADYTTWTDMDYWGQGTQVTVSS,low polyreactivity
10,QVQLVESGGGLVQAGGSLRLSCAASGYTFFTNAMGWYRQAPGKEREFVAAISKSGGNTYYADSVKGRFTISRDNAKNTVYLQMNSRKPEDTAVYYCAAQHRGYAGPRPYYYWGQGTQVTVSS,high polyreactivity
11,QVQLVESGGGLVQAGGSLRLSCAASGYTFFTNVMGWYRKAPGKERELVATITAGGSTYADSVKGRFTISRDNAKNTFYLQMNSLKPEDTAVYYCAVDALTGAWLGGYPYWADGYDYWGQGTQVTVSS,low polyreactivity
12,QVQLVESGGGLVQAGGSLRLSCAASGYTFFVYAMGWYRQAPGKERELVAAIDLNGGSTSYADSVKGRFTISRDNAKNTVYLQMNSLKPEDTAVYYCAAYSWVGYDYDYWGQGTQVTVSS,low polyreactivity
13,QVQLVESGGGLVQAGGSLRLSCAASGYTFGFYTRGWYRQAPGKERELVAGISWSGGSTYYADSVKGRFTISRDNAKNTVYLQMNSLKPEDTAVYYCATRWRGRYDYWGQGTQVTVSS,high polyreactivity
14,QVQLVESGGGLVQAGGSLRLSCAASGYTFGGNAMGWYRQAPGKERELVAAISSGGSTNYADSVKGRFTISRDNAKNTVYLQMNSLKPEDTAVYYCNKRGYYYWSGQDVASYDYWGQGTQVTVSS,low polyreactivity
15,QVQLVESGGGLVQAGGSLRLSCAASGYTFGKNAMGWYRQAPGKERELVAAISRSGGSTFYADSVKGRFTISRDNAKHTVYLQMNSLKPEDTAVYYCAARSYVRFDYWGQGTQVTVSS,high polyreactivity
16,QVQLVESGGGLVQAGGSLRLSCAASGYTFGQYAMGWYRQAPGKEREFVAAINRSGGSTYYADSVKGRFTISRDNAKNTVYLQMNSLKPEDTAVYYCNAGYRRSSHFREHDYWGQGTQVTVSS,high polyreactivity
17,QVQLVESGGGLVQAGGSLRLSCAASGYTFGRYAMGWYSQAPGKERELVAAITKSGGRTSYADSVKGRFTISRDNEKNTVYLQMTSLKPEDTAVYYCNKVRFQPYWVVYATGDYWGQGTQVTVSS,high polyreactivity
18,QVQLVESGGGLVQAGGSLRLSCAASGYTFGSNAMGWYRQAPGKERELVAAIRYRGDRTYYADSVKGRFTISRDNAKNTVYLQMNSLKPEDTAVYYCAATYGYNTLYRPLRFDYWGQGTQVTVSS,high polyreactivity
19,QVQLVESGGGLVQAGGSLRLSCAASGYTFGSNAMGWYRQAPGKERELVADIDWSSGNTYYADSVKGRFTISRDNAKNTVYVQMNSLKPEDTAVYYCAAELLIYYSWYWYDYWGQGTQVTVSS,high polyreactivity
20,QVQLVESGGGLVQAGGSLRLSCAASGYTFGSYAMGWYRQAPGKERELVAAISKRGGRTYYADSVKGRFTISRDNAKNTVYLQMNSLKPEDTAVYYCAKDYPKYDYWGQGTQVTVSS,high polyreactivity
21,QVQLVESGGGLVQAGGSLRLSCAASGYTFGVNAMGWYRQAPGKERELVAAISRSGGRTYYADSVKGRFTISRDNAKNTVYLQMTSLKPEDTAVYYCAKDRSGSYYNFPEYDYWGQGTQVTVSS,high polyreactivity
